Results taken from US20210379110A1 (LENTIGEN TECHNOLOGY, published 2021).

T1: CD22-Fc peptide (R&D systems) (UniProt P20273 20-687)
T1 construct: Bought reagent (R&D systems); not shown: Fc part of the bought reagent
T1 sequence (looked up): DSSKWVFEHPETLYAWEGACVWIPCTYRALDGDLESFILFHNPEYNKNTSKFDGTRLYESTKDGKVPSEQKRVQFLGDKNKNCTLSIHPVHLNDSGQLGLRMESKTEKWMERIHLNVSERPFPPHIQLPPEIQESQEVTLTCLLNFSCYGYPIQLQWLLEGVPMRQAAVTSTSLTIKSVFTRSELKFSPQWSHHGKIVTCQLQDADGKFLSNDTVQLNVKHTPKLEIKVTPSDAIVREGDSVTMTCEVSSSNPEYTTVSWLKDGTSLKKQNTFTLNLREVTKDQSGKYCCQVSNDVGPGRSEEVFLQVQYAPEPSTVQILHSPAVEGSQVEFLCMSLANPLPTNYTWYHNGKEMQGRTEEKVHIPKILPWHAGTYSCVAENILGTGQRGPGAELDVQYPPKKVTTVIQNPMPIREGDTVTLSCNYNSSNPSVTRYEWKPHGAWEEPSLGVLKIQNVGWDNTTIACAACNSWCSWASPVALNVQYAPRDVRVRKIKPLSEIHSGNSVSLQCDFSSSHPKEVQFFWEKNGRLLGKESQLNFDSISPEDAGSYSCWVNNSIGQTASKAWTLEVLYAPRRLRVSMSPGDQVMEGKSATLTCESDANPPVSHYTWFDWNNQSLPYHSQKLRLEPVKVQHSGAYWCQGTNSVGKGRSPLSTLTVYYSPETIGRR

T2: TSLPR-Fc peptide (R&D systems) (UniProt Q9HC73 25-231)
T2 construct: Bought reagent (R&D systems); also called TSLPR-Fc reagent; not shown: Fc part of the bought reagent
T2 sequence (looked up): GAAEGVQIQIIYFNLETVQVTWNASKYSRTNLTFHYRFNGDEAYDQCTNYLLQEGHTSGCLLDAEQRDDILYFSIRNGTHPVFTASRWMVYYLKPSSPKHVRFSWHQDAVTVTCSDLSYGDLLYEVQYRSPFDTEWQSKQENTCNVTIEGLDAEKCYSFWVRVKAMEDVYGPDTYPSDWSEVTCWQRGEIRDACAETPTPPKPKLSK


How the values were obtained:
[1] = target: T1, CD22-Fc peptide (R&D systems); assay: flow cytometry, CAR T cells stained with CD22-Fc then anti-Fc AF647
Experimental: (§1) For CAR surface expression, TSLPR Fc, CD19Fc and CD22Fc peptide (R&D systems, Minneapolis, Minn.) were used followed anti Fc-AF647 (Jackson ImmunoResearch, West Grove, Pa.). T cell subtypes was further identified with anti-CD4 antibody conjugated to VioBlue fluorophore (Miltenyi Biotec Bergisch Gladbach, Germany). Dead cells in all studies were excluded by 7AAD staining (BD Biosciences, San Jose, Calif.). Flow data were analyzed with MACSQuantify software.
To develop the tandem CD22 and TSLPR targeting CARs, CD22-directed scFv 16P17 was used in either membrane-proximal or membrane-distal orientation (construct D0103 and D0104, respectively). For TSLPR-targeting, scFv 3G11 was used. Surface expression of the tandem TSLPR×CD22 CAR incorporating the human ScFv 16P17 together with the TSLPR scFv 3G11, when the TSLPR scFv is positioned in the membrane-distal orientation (D0103), or in the membrane-proximal orientation (D0104) is shown in FIG. 5. Specific detection of each scFv domain within the CAR structure was facilitated by CAR T cell staining with TSLPR-Fc peptide, or CD22-Fc peptide, followed by a secondary staining with anti-Fc AF647-labeled reagent, and detected in the APC channel by flow cytometry. In CAR construct D0103, in which CD22 scFv was membrane-proximal and the TSLPR scFv was membrane-distal, the TSLPR scFv was detected at 26% of the transduced cells, and CD22 scFv was detected at 11%. In CAR construct D0104 with the opposite binder orientation (i.e. the CD22 scFv was membrane-distal, and the TSLPR scFv was membrane-proximal), the detection levels were 75% and 39% for scFv TSLPR and CD22, respectively (FIG. 5).
The surface expression of the tandem TSLPR×CD22 CAR incorporating the human ScFv m971 in membrane-proximal orientation (D0111), and in the membrane-distal orientation (D0112) is shown in FIG. 8. Specific detection of each scFv domain within the CAR structure was facilitated by CAR T cell staining with TSLPR-Fc peptide, or CD22-Fc peptide, followed by a secondary staining with anti-Fc AF647-labeled reagent and detection in the APC channel by flow cytometry. In CAR construct D0111, in which CD22 scFv was membrane-proximal and the TSLPR scFv was membrane-distal, the TSLPR scFv was detected at 34% of the transduced cells, and CD22 scFv was detected at 11%.

[2] = target: T2, TSLPR-Fc peptide (R&D systems); assay: flow cytometry, CAR T cells stained with TSLPR-Fc then anti-Fc AF647
Experimental: as §1, with “Flow cytometric analysis was performed to detect the CAR molecule surface expression. Half million of harvested primary T cells were washed and stained with cold AutoMACS buffer supplemented with 0.5% bovine serum albumin (Miltenyi Biotec, Bergisch Gladbach, Germany), and resuspended in 200 ul Running Buffer before acquired by MACSQuant®10 Analyzer (Miltenyi Biotec Bergisch Gladbach, Germany). For” for “For”
Specific detection of each scFv domain within the CAR structure was facilitated by CAR T cell staining with TSLPR-Fc peptide, or CD19-Fc peptide, followed by a secondary staining with anti-Fc AF647-labeled reagent, and fluorescence was detected in the APC channel. In CAR construct D0101, in which CD19 scFv was membrane-proximal and the TSLPR scFv was membrane-distal, the TSLPR scFv was detected at 44% of the transduced cells, and CD19 scFv was detected at 31%. In CAR construct D0102 with the reverse binder orientation (i.e. the TSLPR scFv membrane-proximal, and CD19 scFv membrane-distal), the detection levels were 85% and 75% for scFv TSLPR and CD19, respectively (FIG. 2).

Row | percent of transduced T cells stained by antigen-Fc [1] [%] | percent of transduced T cells stained by antigen-Fc [2] [%] | Binder
1 | 39 | 73 | D0112 (EF-1a-CD22 (m971)-TSLPR CD8 BBz) (other, Tandem chimeric antigen receptor on human primary T cells: leader, CD22 scFv m971 (membrane-distal), (GGGGS)5, TSLPR scFv 3G11, CD8 hinge/TM, 4-1BB, CD3 zeta; also called CAR 22m971-TSLPR BBz) QVQLQQSGPGLVKPSQTLSLTCAISGDSVSSNSAAWNWIRQSPSRGLEWLGRTYYRSKWYNDYAVSVKSRITINPDTSKNQFSLQLNSVTPEDTAVYYCAREVTGDLEDAFDIWGQGTMVTVSSGGGGSGGGGSGGGGSDIQMTQSPSSLSASVGDRVTITCRASQTIWSYLNWYQQRPGKAPNLLIYAASSLQSGVPSRFSGRGSGTDFTLTISSLQAEDFATYYCQQSYSIPQTFGQGTKLEIKGGGGSGGGGSGGGGSGGGGSGGGGSQVTLKESGPGILKPSQTLSLTCSFSGFSLSTSGMGVGWIRQPSGKGLEWLAHIWWDDDKYYNPSLKSQLTISKDTSRNQVFLKITSVDTADTATYYCSRRPRGTMDAMDYWGQGTSVTVSSGGGGSGGGGSGGGGSDIVMTQAASSLSASLGDRVTISCRASQDISKYLNWYQQKPDGTVKLLIYYTSRLHSGVPSRFSGSGSGTDYSLTIRNLEQEDIATYFCQQVYTLPWTFGGGTKLEIKAAATTTPAPRPPTPAPTIASQPLSLRPEACRPAAGGAVHTRGLDFACDIYIWAPLAGTCGVLLLSLVITLYCKRGRKKLLYIFKQPFMRPVQTTQEEDGCSCRFPEEEEGGCELRVKFSRSADAPAYQQGQNQLYNELNLGRREEYDVLDKRRGRDPEMGGKPRRKNPQEGLYNELQKDKMAEAYSEIGMKGERRRGKGHDGLYQGLSTATKDTYDALHMQALPPR
2 | 11 | 34 | D0111 (EF-1a-TSLPR-CD22 (m971) CD8 BBz) (other, Tandem chimeric antigen receptor on human primary T cells: leader, TSLPR scFv 3G11 (membrane-distal), (GGGGS)5, CD22 scFv m971, CD8 hinge/TM, 4-1BB, CD3 zeta; also called CAR TSLPR-22m971 BBz) QVTLKESGPGILKPSQTLSLTCSFSGFSLSTSGMGVGWIRQPSGKGLEWLAHIWWDDDKYYNPSLKSQLTISKDTSRNQVFLKITSVDTADTATYYCSRRPRGTMDAMDYWGQGTSVTVSSGGGGSGGGGSGGGGSDIVMTQAASSLSASLGDRVTISCRASQDISKYLNWYQQKPDGTVKLLIYYTSRLHSGVPSRFSGSGSGTDYSLTIRNLEQEDIATYFCQQVYTLPWTFGGGTKLEIKGGGGSGGGGSGGGGSGGGGSGGGGSQVQLQQSGPGLVKPSQTLSLTCAISGDSVSSNSAAWNWIRQSPSRGLEWLGRTYYRSKWYNDYAVSVKSRITINPDTSKNQFSLQLNSVTPEDTAVYYCAREVTGDLEDAFDIWGQGTMVTVSSGGGGSGGGGSGGGGSDIQMTQSPSSLSASVGDRVTITCRASQTIWSYLNWYQQRPGKAPNLLIYAASSLQSGVPSRFSGRGSGTDFTLTISSLQAEDFATYYCQQSYSIPQTFGQGTKLEIKAAATTTPAPRPPTPAPTIASQPLSLRPEACRPAAGGAVHTRGLDFACDIYIWAPLAGTCGVLLLSLVITLYCKRGRKKLLYIFKQPFMRPVQTTQEEDGCSCRFPEEEEGGCELRVKFSRSADAPAYQQGQNQLYNELNLGRREEYDVLDKRRGRDPEMGGKPRRKNPQEGLYNELQKDKMAEAYSEIGMKGERRRGKGHDGLYQGLSTATKDTYDALHMQALPPR

Continued, binder first:

Row | Binder | percent of transduced T cells stained by antigen-Fc [1] [%] | percent of transduced T cells stained by antigen-Fc [2] [%]
3 | D0103 (EF-1a-TSLPR-CD22 (16P17) CD8 BBz) (other, Tandem chimeric antigen receptor on human primary T cells: leader, TSLPR scFv 3G11 (membrane-distal), (GGGGS)5, CD22 scFv 16P17, CD8 hinge/TM, 4-1BB, CD3 zeta; also called CAR TSLPR-22 BBz; tandem D0103 TSLPR×CD22 CAR) QVTLKESGPGILKPSQTLSLTCSFSGFSLSTSGMGVGWIRQPSGKGLEWLAHIWWDDDKYYNPSLKSQLTISKDTSRNQVFLKITSVDTADTATYYCSRRPRGTMDAMDYWGQGTSVTVSSGGGGSGGGGSGGGGSDIVMTQAASSLSASLGDRVTISCRASQDISKYLNWYQQKPDGTVKLLIYYTSRLHSGVPSRFSGSGSGTDYSLTIRNLEQEDIATYFCQQVYTLPWTFGGGTKLEIKGGGGSGGGGSGGGGSGGGGSGGGGSQVQLQQSGPGLVKHSQTLSLTCAISGDSVSSNSAAWNWIRQSPSRGLEWLGRTYYRSKWYNDYAVSVKSRITINPDTSKNQFSLQLNSVTPEDTAVYYCAQEVEPHDAFDIWGQGTMVTVSSGGGGSGGGGSGGGGSDIQMTQSPSSVYASVGDKVTITCRASQDVSGWLAWYQQKPGLAPQLLISGASTLQGEVPSRFSGSGSGTDFTLTISSLQPEDFATYYCQQAKYFPYTFGQGTKLEIKAAATTTPAPRPPTPAPTIASQPLSLRPEACRPAAGGAVHTRGLDFACDIYIWAPLAGTCGVLLLSLVITLYCKRGRKKLLYIFKQPFMRPVQTTQEEDGCSCRFPEEEEGGCELRVKFSRSADAPAYQQGQNQLYNELNLGRREEYDVLDKRRGRDPEMGGKPRRKNPQEGLYNELQKDKMAEAYSEIGMKGERRRGKGHDGLYQGLSTATKDTYDALHMQALPPR | 11 | 26
4 | D0104 (EF-1a-CD22 (16P17)-TSLPR CD8 BBz) (other, Tandem chimeric antigen receptor on human primary T cells: leader, CD22 scFv 16P17 (membrane-distal), (GGGGS)5, TSLPR scFv 3G11, CD8 hinge/TM, 4-1BB, CD3 zeta; also called CAR 22-TSLPR BBz; tandem D0104 CD22×TSLPR CAR) QVQLQQSGPGLVKHSQTLSLTCAISGDSVSSNSAAWNWIRQSPSRGLEWLGRTYYRSKWYNDYAVSVKSRITINPDTSKNQFSLQLNSVTPEDTAVYYCAQEVEPHDAFDIWGQGTMVTVSSGGGGSGGGGSGGGGSDIQMTQSPSSVYASVGDKVTITCRASQDVSGWLAWYQQKPGLAPQLLISGASTLQGEVPSRFSGSGSGTDFTLTISSLQPEDFATYYCQQAKYFPYTFGQGTKLEIKGGGGSGGGGSGGGGSGGGGSGGGGSQVTLKESGPGILKPSQTLSLTCSFSGFSLSTSGMGVGWIRQPSGKGLEWLAHIWWDDDKYYNPSLKSQLTISKDTSRNQVFLKITSVDTADTATYYCSRRPRGTMDAMDYWGQGTSVTVSSGGGGSGGGGSGGGGSDIVMTQAASSLSASLGDRVTISCRASQDISKYLNWYQQKPDGTVKLLIYYTSRLHSGVPSRFSGSGSGTDYSLTIRNLEQEDIATYFCQQVYTLPWTFGGGTKLEIKAAATTTPAPRPPTPAPTIASQPLSLRPEACRPAAGGAVHTRGLDFACDIYIWAPLAGTCGVLLLSLVITLYCKRGRKKLLYIFKQPFMRPVQTTQEEDGCSCRFPEEEEGGCELRVKFSRSADAPAYQQGQNQLYNELNLGRREEYDVLDKRRGRDPEMGGKPRRKNPQEGLYNELQKDKMAEAYSEIGMKGERRRGKGHDGLYQGLSTATKDTYDALHMQALPPR | 39 | 75
